# Laboratory results from patent publication US20060067886A1, “Gastrin receptor-avid peptide conjugates” (priority 1997, published 2006).
# Test: Biodistribution of radiometal-DOTA-BBN conjugates in CF1 normal mice
# Conditions: 1 hour post-injection; for tissue uptake dose at 1 h / dose excreted at 1 h / tissue uptake at 1 h: CF-1, mouse, in vivo, iv, total radioactivity; for tissue uptake dose at 1 h / dose excreted at 1 h: Avg % ID; for dose excreted at 1 h: Urine; for tissue uptake at 1 h: Avg % ID/gm
SMILES,"Avg % ID, Blood [% ID]","Avg % ID, Carcass [% ID]","Avg % ID, Heart [% ID]","Avg % ID, Kidney [% ID]","Avg % ID, L. Intestine [% ID]","Avg % ID, Lung [% ID]","Avg % ID, Muscle [% ID]","Avg % ID, Pancreas [% ID]","Avg % ID, S. Intestine [% ID]","Avg % ID, Spleen [% ID]","Avg % ID, Stomach [% ID]","Avg % ID/gm, Blood [% ID/gm]","Avg % ID/gm, Heart [% ID/gm]","Avg % ID/gm, L. Intestine [% ID/gm]","Avg % ID/gm, Liver [% ID/gm]","Avg % ID/gm, Lung [% ID/gm]","Avg % ID/gm, Muscle [% ID/gm]","Avg % ID/gm, Pancreas [% ID/gm]","Avg % ID/gm, S. Intestine [% ID/gm]","Avg % ID/gm, Spleen [% ID/gm]",further results
"CSCC[C@H](NC(=O)[C@H](CC(C)C)NC(=O)[C@H](Cc1c[nH]cn1)NC(=O)CNC(=O)[C@@H](NC(=O)[C@H](C)NC(=O)[C@H](Cc1c[nH]c2ccccc12)NC(=O)[C@H](CCC(N)=O)NC(=O)CCCCNC(=O)CN1CCN(CC(=O)O)CCN(CC(=O)O)CCN(CC(=O)O)CC1)C(C)C)C(N)=O [111In-DOTA-5-Ava-BBN[7-14]NH2, metal not drawn]",,,,,,,,,,,,,,,,,,,,,tissue uptake dose at 1 h (Blood): 0.45 ± 0.14 %ID; tissue uptake dose at 1 h (Kidney): 0.75 ± 0.14 %ID; tissue uptake dose at 1 h (L. Intestine): 2.74 ± 0.8 %ID; tissue uptake dose at 1 h (Pancreas): 5.57 ± 0.99 %ID; dose excreted at 1 h: 81.3 ± 1.32%; tissue uptake at 1 h (Blood): 0.2 ± 0.07 %ID/g; tissue uptake at 1 h (Kidney): 1.84 ± 0.44 %ID/g; tissue uptake at 1 h (L. Intestine): 3.07 ± 0.86 %ID/g; tissue uptake at 1 h (Pancreas): 15.8 ± 2.54 %ID/g
CSCC[C@H](NC(=O)[C@H](CC(C)C)NC(=O)[C@H](Cc1c[nH]cn1)NC(=O)CNC(=O)[C@@H](NC(=O)[C@H](C)NC(=O)[C@H](Cc1c[nH]c2ccccc12)NC(=O)[C@H](CCC(N)=O)NC(=O)CCCCNC(=O)CN1CCN(CC(=O)O)CCN(CC(=O)O)CCN(CC(=O)O)CC1)C(C)C)C(N)=O [149Pm-DOTA-5-Ava-BBN[7-14]NH2],0.47 ± 0.11,6.16 ± 0.75,0.06 ± 0.09,1.11 ± 0.29,3.18 ± 1.18,0.17 ± 0.21,0.03 ± 0.04,4.25 ± 0.43,7.70 ± 0.66,0.27 ± 0.13,0.77 ± 0.74,0.27 ± 0.06,0.42 ± 0.59,3.53 ± 1.10,0.23 ± 0.13,0.78 ± 1.08,0.24 ± 0.25,22.1 ± 5.40,5.15 ± 1.20,2.37 ± 1.36,"Avg % ID, Liver: 0.37 ± 0.20 % ID; Avg % ID/gm, Kidney: 2.81 ± 0.66 % ID/gm; Avg % ID/gm, Stomach: 1.90 ± 1.60 % ID/gm"
CSCC[C@H](NC(=O)[C@H](CC(C)C)NC(=O)[C@H](Cc1cnc[nH]1)NC(=O)CNC(=O)[C@@H](NC(=O)[C@H](C)NC(=O)[C@H](Cc1c[nH]c2ccccc12)NC(=O)[C@H](CCC(N)=O)NC(=O)CCCCCCCNC(=O)CN1CCN(CC(=O)O)CCN(CC(=O)O)CCN(CC(=O)O)CC1)C(C)C)C(N)=O [149Pm-DOTA-8-Aoc-BBN[7-14]NH2],0.23 ± 0.26,10.30 ± 1.84,0.00 ± 0.01,1.55 ± 0.47,4.43 ± 2.37,0.02 ± 0.04,0.01 ± 0.02,7.34 ± 3.51,7.84 ± 2.15,0.24 ± 0.06,0.66 ± 0.35,0.12 ± 0.13,,4.14 ± 2.14,0.19 ± 0.12,0.09 ± 0.14,0.09 ± 0.21,28.29 ± 13.26,12.56 ± 16.70,,
CSCC[C@H](NC(=O)[C@H](CC(C)C)NC(=O)[C@H](Cc1cnc[nH]1)NC(=O)CNC(=O)[C@@H](NC(=O)[C@H](C)NC(=O)[C@H](Cc1c[nH]c2ccccc12)NC(=O)[C@H](CCC(N)=O)NC(=O)CCNC(=O)CN1CCN(CC(=O)O)CCN(CC(=O)O)CCN(CC(=O)O)CC1)C(C)C)C(N)=O [111In-DOTA-β-Ala-BBN[7-14]NH2] [metal not drawn],,,0.01 ± 0.01,,0.90 ± 0.57,,0.01 ± 0.01,1.84 ± 0.35,1.57 ± 0.65,0.05 ± 0.00,,,0.06 ± 0.04,1.10 ± 0.78,,,0.03 ± 0.02,4.92 ± 0.37,1.01 ± 0.37,0.37 ± 0.06,
"CSCC[C@H](NC(=O)[C@H](CC(C)C)NC(=O)[C@H](Cc1cnc[nH]1)NC(=O)CNC(=O)[C@@H](NC(=O)[C@H](C)NC(=O)[C@H](Cc1c[nH]c2ccccc12)NC(=O)[C@H](CCC(N)=O)NC(=O)CCNC(=O)CN1CCN(CC(=O)O)CCN(CC(=O)O)CCN(CC(=O)O)CC1)C(C)C)C(N)=O [111In-DOTA-β-Ala-BBN[7-14]NH2, metal not drawn]",,,,,,,,,,,,,,,,,,,,,tissue uptake dose at 1 h (Blood): 0.23 ± 0.1 %ID; tissue uptake dose at 1 h (Carcass): 2.23 ± 0.36 %ID; tissue uptake dose at 1 h (Kidney): 0.62 ± 0.1 %ID; tissue uptake dose at 1 h (Liver): 0.17 ± 0.03 %ID; tissue uptake dose at 1 h (Lung): 0.03 ± 0.02 %ID; tissue uptake dose at 1 h (Stomach): 0.13 ± 0.02 %ID; dose excreted at 1 h: 92.41 ± 0.9%; tissue uptake at 1 h (Blood): 0.11 ± 0.06 %ID/g; tissue uptake at 1 h (Kidney): 1.4 ± 0.27 %ID/g; tissue uptake at 1 h (Liver): 0.11 ± 0.02 %ID/g; tissue uptake at 1 h (Stomach): 0.3 ± 0.07 %ID/g
"CSCC[C@H](NC(=O)[C@H](CC(C)C)NC(=O)[C@H](Cc1cnc[nH]1)NC(=O)CNC(=O)[C@@H](NC(=O)[C@H](C)NC(=O)[C@H](Cc1c[nH]c2ccccc12)NC(=O)[C@H](CCC(N)=O)NC(=O)CN1CCN(CC(=O)O)CCN(CC(=O)O)CCN(CC(=O)O)CC1)C(C)C)C(N)=O [111In-DOTA-0-BBN[7-14]NH2, metal not drawn]",,,,,,,,,,,,,,,,,,,,,tissue uptake dose at 1 h (Blood): 0.22 ± 0.07 %ID; tissue uptake dose at 1 h (Heart): 0.01 %ID; tissue uptake dose at 1 h (Kidney): 0.57 ± 0.02 %ID; tissue uptake dose at 1 h (Liver): 0.17 ± 0.02 %ID; tissue uptake dose at 1 h (Lung): 0.03 %ID; tissue uptake dose at 1 h (Muscle): 0.01 %ID; tissue uptake dose at 1 h (Pancreas): 0.07 ± 0.01 %ID; tissue uptake dose at 1 h (Spleen): 0.01 %ID; dose excreted at 1 h: 96.95 ± 0.37%; tissue uptake at 1 h (Heart): 0.05 ± 0.02 %ID/g; tissue uptake at 1 h (Kidney): 1.24 ± 0.14 %ID/g; tissue uptake at 1 h (Liver): 0.09 ± 0.01 %ID/g; tissue uptake at 1 h (Lung): 0.13 ± 0.03 %ID/g; tissue uptake at 1 h (Pancreas): 0.2 ± 0.04 %ID/g; tissue uptake at 1 h (Spleen): 0.08 ± 0.02 %ID/g
CSCC[C@H](NC(=O)[C@H](CC(C)C)NC(=O)[C@H](Cc1c[nH]cn1)NC(=O)CNC(=O)[C@@H](NC(=O)[C@H](C)NC(=O)[C@H](Cc1c[nH]c2ccccc12)NC(=O)[C@H](CCC(N)=O)NC(=O)CCCCNC(=O)CN1CCN(CC(=O)O)CCN(CC(=O)O)CCN(CC(=O)O)CC1)C(C)C)C(N)=O [177Lu-DOTA-5-Ava-BBN[7-14]NH2] [metal not drawn],0.35 ± 0.31,2.77 ± 0.75,0.04 ± 0.05,0.69 ± 0.33,3.52 ± 1.37,0.08 ± 0.15,0.09 ± 0.12,3.78 ± 1.09,3.80 ± 1.87,0.18 ± 0.12,0.73 ± 1.33,0.22 ± 0.19,0.34 ± 0.35,3.78 ± 1.23,0.09 ± 0.04,0.47 ± 0.84,0.67 ± 0.90,16.41 ± 1.38,2.55 ± 1.31,1.26 ± 0.69,"Avg % ID, Liver: 0.14 ± 0.06 % ID; Avg % ID/gm, Kidney: 2.03 ± 1.02 % ID/gm; Avg % ID/gm, Stomach: 1.48 ± 2.25 % ID/gm"
CSCC[C@H](NC(=O)[C@H](CC(C)C)NC(=O)[C@H](Cc1c[nH]cn1)NC(=O)CNC(=O)[C@@H](NC(=O)[C@H](C)NC(=O)[C@H](Cc1c[nH]c2ccccc12)NC(=O)[C@H](CCC(N)=O)NC(=O)CCCCCCCCCCNC(=O)CN1CCN(CC(=O)O)CCN(CC(=O)O)CCN(CC(=O)O)CC1)C(C)C)C(N)=O [177Lu-DOTA-11-Aun-BBN[7-14]NH2] [metal not drawn],0.47 ± 0.54,6.69 ± 2.48,0.19 ± 0.29,1.76 ± 0.25,5.03 ± 0.46,0.17 ± 0.22,0.11 ± 0.18,6.89 ± 1.20,17.10 ± 3.60,0.24 ± 0.24,0.64 ± 0.35,0.78 ± 1.10,1.56 ± 2.40,6.31 ± 0.86,1.65 ± 0.29,0.73 ± 0.81,0.75 ± 1.12,35.48 ± 2.39,12.58 ± 1.73,1.78 ± 1.87,"Avg % ID, Liver: 2.26 ± 0.46 % ID; Avg % ID/gm, Kidney: 4.97 ± 0.61 % ID/gm; Avg % ID/gm, Stomach: 1.82 ± 1.12 % ID/gm"
